Measured values from PMC6107238, “Conformational plasticity of the intrinsically disordered protein ASR1 modulates its function as a drought stress-responsive gene” (PLoS ONE, 2018).

Key:
[1] = biological target: T1, ASR1 (Abscisic, Stress, Ripening 1) (Solanum lycopersicum (tomato), UniProt Q08655 1-115); assay: fluorescence anisotropy; 100 uM ZnCl2; Buffer H: 100 mM NaCl, 20 mM HEPES pH 7.4, with 100 uM ZnCl2; 250 nM FITC-dsDNA; anisotropy temperature not stated (CD at 25 C); conditions: protein: recombinant; tags: untagged in the main text (original His6 removed); label: 5' FITC on one strand; blunt
T1 sequence: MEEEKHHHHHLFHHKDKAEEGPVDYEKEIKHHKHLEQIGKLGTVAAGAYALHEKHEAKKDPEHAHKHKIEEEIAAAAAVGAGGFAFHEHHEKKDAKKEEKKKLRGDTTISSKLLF

[2] = biological target: the molecule itself; assay: SDS-PAGE; purified ASR1 at high protein concentrations on SDS-PAGE

B1: FITC-oligoS (dsDNA)
DNA 1: AGTTCTGGTTGG
DNA 2: CCAACCAGAACT
- Kd [1]: 1080 ± 46 nM

B2: FITC-oligoC (dsDNA)
DNA 1: TATTGGGCTTGG
DNA 2: CCAAGCCCAATA
- Kd [1]: 216 ± 10 nM

B3: Tomato ASR1 (Abscisic, Stress, Ripening protein 1), untagged recombinant protein (natural protein, UniProt Q08655 1-115, looked up)
chain: MEEEKHHHHHLFHHKDKAEEGPVDYEKEIKHHKHLEQIGKLGTVAAGAYALHEKHEAKKDPEHAHKHKIEEEIAAAAAVGAGGFAFHEHHEKKDAKKEEKKKLRGDTTISSKLLF
notes: ASR1 of tomato; 'peaks corresponding to the expected full-length protein were pooled'; 12.7 kDa by SLS; The cloning of ASR1 alone is not described; also called untagged ASR1; ASR1 recombinant protein
- binding result [2]: binds
